Source: US20230094463A1, “ANTIBODIES THAT DISRUPT THE INTERACTION OF GAL3 AND INSULIN RECEPTOR OR INTEGRINS AND METHODS OF USE THEREOF” (TrueBinding, Inc., priority 2019, published 2023)
Substitutions are numbered along the chain they refer to. In names and notes the source's numbering stands. Values belong to the molecule of their own block, whether it stands above or below them.

Assays:
[1] = molecular target: T1, Gal3 peptides (SEQ ID NOs: 3-26) (Homo sapiens, UniProt P17931); experiment: Gal3 peptide library binding ELISA (epitope mapping); conditions: for binding to Gal3 Peptide 1: Peptide 1 (SEQ ID NO: 3), amino acids 1-20 of Gal3; for binding to Gal3 Peptide 6: Peptide 6 (SEQ ID NO: 8), amino acids 51-70 of Gal3; for binding to Gal3 Peptide 7: Peptide 7 (SEQ ID NO: 9), amino acids 61-80 of Gal3
T1 construct: a library of 24 amino acid peptides representing portions of Gal3; purchased LifeTein custom order
Protocol: (§1) To identify the epitopes to which Gal3 antibodies with and without Gal3-INSR blocking activity bound, a library of 24 amino acid peptides representing portions of Gal3, depicted in FIG. 27, was produced and the ability of each peptide to bind Gal3 antibodies was evaluated by ELISA. At least 2 μg/ml of hGal3 peptide in 50 μl of PBS or 0.1 μg/ml of full-length human Gal3 protein (GenScript) and human Galectin-3 protein (Acro Biosystems, GA3-H5129) were diluted in PBS (Corning, 21-030-CM) to concentrations of at least 2 μg/ml or 0.1 μg/ml, respectively, and added to the wells of a 96-well ELISA plate (Thermo Fisher, 44-2404-21). After incubating the plate at 4° C. overnight, the plate was washed three times with PBST (PBS with 0.05% Tween 20 [VWR, 0777]). The plate was then blocked for an hour with 2% BSA (EMD Millipore, 126609) in PBST at room temperature with gentle rocking. Thereafter, the 2% BSA in PBST was discarded and human Galectin-3 hybridoma supernatants or antibodies were diluted in 2% BSA in PBST to concentrations of at least 0.1 μg/ml and added to the wells. The plate was incubated for an hour at room temperature with gentle rocking and then washed three times with PBST. Afterwards, Goat Anti-Mouse IgG-HRP (Jackson ImmunoResearch, 115-036-1461) or Goat Anti-Rat IgG HRP (Abcam, ab205720) diluted in 2% BSA in PBST (1:4000) were added to the wells. The plate was incubated for 30 minutes to 1 hour at room temperature with gentle rocking and then washed three times with PBST. TMB substrate (Thermo Scientific, 34029) was then added to each well. The reaction was stopped with 1M HCl (JT Baker, 5620-02) and read using a plate reader (Molecular Devices) at absorbance of 450 nm.
(§2) Human Gal3 peptides (LifeTein, custom order) and human Gal3 proteins (R&D Systems, 8259-GA; TrueBinding, QCB200349) were diluted in PBS (Corning, 21-030-CM) to concentrations of at least 100 μg/mL (peptides) or 1 μg/mL (proteins), and added to the wells of several 96-well ELISA plates (Thermo Fisher, 44-2404-21). After incubating the plates at 4° C. overnight, the plates were washed three times with PBST (PBS with 0.05% Tween 20 [VWR, 0777]). The plates were then blocked for an hour with 2% BSA (EMD Millipore, 126609) in PBST at room temperature with gentle rocking. Thereafter, the 2% BSA in PBST was discarded and Gal3-binding antibodies (reformatted hIgG4 [S228P]) were diluted in 2% BSA in PBST to concentrations of 5 μg/mL and added to the wells. The plates were incubated for an hour at room temperature with gentle rocking and then washed three times with PBST. Afterwards, Peroxidase AffiniPure F(ab′)2 Fragment Goat Anti-Human IgG (H+L) polyclonal antibody (Jackson ImmunoResearch, 109-036-003), was diluted in 2% BSA in PBST (1:4000) and added to the wells. The plates were incubated for 1 hour at room temperature with gentle rocking and then washed three times with PBST. TMB substrate (Thermo Scientific, 34029) was then added to each well. The reaction was stopped with 1M HCl (JT Baker, 5620-02) and read using a plate reader (Molecular Devices) at absorbance of 450 nm.

human Gal3 = molecular target: T2, human Gal3 (Homo sapiens, UniProt P17931); experiment: Antibody binning assays (competition for binding to Gal3); conditions: binning per Examples 3 and 18
T2 construct: His; purchased AcroBio GA3-H5129
Protocol: To determine whether Gal3-binding antibodies with Gal3-INSR blocking activity bind to the same or overlapping regions of the Gal3 molecule, antibody binning assays were performed to assess the ability of antibodies to simultaneously bind Gal3. Amine-reactive probes were loaded onto a Gator biosensor (Probe Life, Palo Alto, Calif.), equilibrated in dH20 for 60 seconds, dipped into 100 μl EDC 0.2M/NHS 0.05M activation buffer for 30 seconds, then dipped into a solution of […] human Gal3-His in 10 mM NaOAc buffer, pH 5 until binding was saturated, and quenched in 1 M ethanolamine pH 8.5 for 300 seconds. Following Gal3-His loading, tips were dipped in 20 μg/mL saturating antibody, then successively dipped into 5 μg/mL competing antibody.
The epitope binning assay was done in a sandwich format on the high-throughput SPR-based Carterra LSA unit (CarterraBio, Salt Lake City, Utah). First, the purified antibodies were diluted to 10 μg/ml concentration in 10 mM NaOAc (pH 5.0) and then were covalently coupled via amine group to HC200M chip activated by EDC and S-NHS to immobilize antibodies to different positions of a 384-spot array. One hundred thirty-eight binning cycles were run on the array of immobilized antibodies. In each cycle, first, human Gal3 (AcroBio GA3-H5129) was injected over the entire array to bind to different antibodies (primary antibody), followed by one antibody (secondary antibody) selected among the panel of 150 anti-GAL3 antibodies tested. At the end of each cycle, the array was regenerated by 10 mM Glycine (pH 2.0) to remove bound antigen and secondary antibody from the array. The data analysis was done using the Epitope software by CarterraBio.

[2] = test system: Gal3 peptides (SEQ ID NOs: 3-26); experiment: Gal3 peptide library binding ELISA (epitope mapping); design: species or system human
Protocol: as §1, §2

[3] = molecular target: T3, interaction of Gal3 and INSR (Homo sapiens, UniProt P17931); experiment: ELISA of blocking of Gal3-INSR association by Gal3-binding antibodies
T3 construct: 6-histidine tag (linker-spaced); purchased Acro Biosystems (Gal3); Sino Biological (INSR) GA3-H5129; 11086-H08H
Protocol: Positively scoring wells were evaluated for the ability to block association of Gal3 and INSR. To identify Gal3-targeted antibodies with the ability to block the interaction of Gal3 and INSR, purified Gal3 and INSR proteins were incubated in the presence of Gal3-immunization hybridoma supernatants described above, or without antibody, and protein interaction was evaluated by ELISA. Human Galectin-3 protein (Acro Biosystems, GA3-H5129) was diluted in PBS (Corning, 21-030-CM) to a concentration of 3 μg/ml and added to the wells of a 96-well ELISA plate (Thermo Fisher, 44-2404-21). After incubating the plate at 4° C. overnight, the plate was washed three times with PBST (PBS with 0.05% Tween 20 [VWR, 0777]). The plate was then blocked for an hour with 2% BSA (EMD Millipore, 126609) in PBST at room temperature with gentle rocking. Thereafter, the 2% BSA in PBST was discarded and antibody or inhibitor (3-fold dilutions beginning at 20 μg/ml, 60 μg/ml, or 180 μM) in 2% BSA in PBST was added to the wells. Afterwards, 6 μg/ml of human Insulin Receptor (Sino Biological, 11086-H08H) in 2% BSA in PBST was added to the antibody or inhibitor in the wells in a 1:1 ratio. The plate was incubated for an hour at room temperature with gentle rocking. Thereafter, the plate was washed three times with PBST, and 0.3 μg/ml of human INSR Biotinylated Antibody (R&D Systems, BAF1544) in 2% BSA in PBST was added to the wells. The plate was incubated for an hour with gentle rocking and then washed three times with PBST. Avidin-HRP (1:2000) was then added to the wells. The plate was incubated at room temperature for an hour with gentle rocking and then washed three times with PBST. TMB substrate (Thermo Scientific, 34029) was then added to each well. The reaction was stopped with 1M HCl (JT Baker, 5620-02) and read using a plate reader (Molecular Devices) at absorbance of 450 nm.

T3 sequence (P17931 2-250 limits assumed): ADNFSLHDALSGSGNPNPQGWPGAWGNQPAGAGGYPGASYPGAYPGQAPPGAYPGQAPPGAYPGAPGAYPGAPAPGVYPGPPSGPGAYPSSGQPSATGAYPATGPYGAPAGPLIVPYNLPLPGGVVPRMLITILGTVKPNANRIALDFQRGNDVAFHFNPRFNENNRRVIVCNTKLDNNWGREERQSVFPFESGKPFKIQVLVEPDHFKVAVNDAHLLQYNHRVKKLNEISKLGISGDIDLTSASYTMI
T2 sequence (P17931 whole entry): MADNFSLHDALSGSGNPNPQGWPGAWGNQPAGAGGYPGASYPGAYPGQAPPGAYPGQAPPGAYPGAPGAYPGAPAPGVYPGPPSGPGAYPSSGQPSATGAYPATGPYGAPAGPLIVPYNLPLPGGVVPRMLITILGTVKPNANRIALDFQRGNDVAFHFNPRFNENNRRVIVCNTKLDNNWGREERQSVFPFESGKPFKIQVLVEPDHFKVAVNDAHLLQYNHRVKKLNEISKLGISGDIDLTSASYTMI

B1: 2D10.2B2: anti-Gal3 monoclonal antibody (antibody, V domains shown)
VH: QVQLQQSGPELVKPGASVKISCKASGYTFTDYYINWVKQRPGQGLEWIGWIYPGSNDTKYNEKFKGKATLTVDTSSSTAYMQLGSLTSEDSAVYFCANYFGCSGWFFDVWGTGTTVTVSS
VL: DIVMTQAAFSNPVTLGTSASISCRSSKSLLHSDGITYLYWYLQRPGQSPQLLIYRMSNLASGVPDRFSGSGSGTDFTLRISRVEAEDVGVYYCAQMIEFPLTFGAGTILELK
binding to Gal3 Peptide 1 [1]: bound | binding to Gal3 Peptide 6 [1]: bind and bound | binding to Gal3 Peptide 7 [1]: bound | epitope bin (competitive binding to Gal3) (human Gal3): bin 3

B2: 4A11.2B5: anti-Gal3 monoclonal antibody (antibody, V domains shown)
VH: QVQLQQSGPELVKPGASVKISCKASGYSFTNYYIHWVKQRPGQGLEWIGWIYPGSGNTNYNEKFKGKATLTADTSSSTTNMQLSSLTSEDSAVYYCSTAPGGFDVWGSGTTVTVSS
VL: B1 VL with I97L, I108K
binding to Gal3 Peptide 6 [1]: bind and bound | epitope bin (competitive binding to Gal3) (human Gal3): bin 3

B5: 12G5.D7: anti-Gal3 monoclonal antibody (antibody, V domains shown)
VH: QVQLKQSGAELVRPGASVKLSCKASGYTFTDYYINWVKQRPGQGLEWIARIYPGTGNTDYNEKFKGRATLTAEKSSSTAYMQLSSLTSEDSAVYFCARFAYYYGSGGYFDYWGHGTTLTVSS
VL: DILMTQSPSSMSVSLGDTVSITCHASQGINSNMGWLQQKPGKSFKGLIYHATNLEDGVPSRFSGSGSGADYSLTISSLESEDFADYYCVQYAQFPPTFGSGTKLEIK
epitope bin (competitive binding to Gal3) (human Gal3): bin 10 | Gal3-INSR blocking activity (in words) [3]: poorly block

B6: 13G4.2F8: anti-Gal3 monoclonal antibody (antibody, V domains shown)
VH: QVQLQQPGAELVKPGASVKLSCKASGYTFTSYWMHWVKQRPGQGLEWIGMIHPNSGSTDYNEKFKNKATLNVDKSSSTAYIQLSSLTSEDSAVYYCTRWGIYYYARDYWGQGTTLTVSS
VL: DIVMTQSQKFMSTSVGERVSITCKASQNVGTNVAWYQQKAGQSLELLIYGASNRHTGVPDRFTGSGSGTDFTLTITNVQSEDMTNYFCEQYSNFPLTFGAGTKLELK
Gal3-INSR blocking activity (in words) [3]: poorly block

Results, then the molecule that gave them:

binding to Gal3 Peptide 17 ([2]; Peptide 17 (SEQ ID NO: 19)): bind | binding to Gal3 Peptide 6 [1]: bind and bound
B3: F846C.1F5: anti-Gal3 antibody (antibody, V domains shown)
VH: QIQLVQSGPELKKPGETVKISCKASGYTFTNYGMNWVKQAPGKGLKWMGWINTYTGEPSYADDFKGRFAFSLETSASTAYLQINNLKNEDMATYFCARWGGYDGDYYAMDYWGQGTSVTVSS
VL: NIMMTQSPSSLAVSAGEKVTMSCKSSQSVLYSSNQKNYLAWYQQKPGQSPKLLIYWASTRESGVPDRFTGSGSGTDFTLTISSVQPEDLAVYYCHQYLSSLTFGAGTKLELK

binding to Gal3 Peptide 8 ([2]; Peptide 8 (SEQ ID NO: 10)): bind | binding to Gal3 Peptide 1 [1]: bind and bound | binding to Gal3 Peptide 7 [1]: bind and bound
B4: F846TC.14A2: anti-Gal3 antibody (antibody, V domains shown)
VH: QIQLVQSGPELKKPGETVKISCKASGYTFTNYGMNWVKQAPGKGLKWMGWINTYTGEPTYAGDLKGRFAFSLETSASTAYLQINNLKNEDTATYFCVRYTMDYWGQGTSVTVSS
VL: QAVVTQESALTTSPGETVTLTCRSSTGAVTTSNYANWVQEKPDHLFTGLIGGINNRVPGVPARFSGSLIGDKAALTITGAQTEDEAIYFCALWYSNHWVFGGGTKLTVL

Gal3-INSR blocking activity (in words) [3]: poorly block
B7: 24D12.2H9: anti-Gal3 monoclonal antibody (antibody, V domains shown)
VH: QVQLKQSGPGLVQPSQSLSITCTVSGFSLTSYGVHWVRQAPGKGLEWLGVIWSGGSTDYNAAFMSRLSISKDNSKSQVFFKMNSLQADDTAIYYCAKSPDGYDVAWFGYWGQGTLVTVSA
VL: DIVMTQSHKFMSTSVGDRVSITCKASQDVRTAVAWYQQKPGQSPKLLIYWASTRHTGVPDRFTGSGSGTDFTLTLSNVQSEDLADYFCQQYSSYPWTFGGGTKLEIK
